Among the data in the RNAGym collection of RNA variant scans (doi:10.7554/elife.90254) are self-cleavage values, retold here.

B1: LINE1-full (parent)
chain: UACGUAGGUGGUUUUCCCCUGAUAGUGCUAAGGGGGCCUGGAAGUUUGGACUGGGCAGAGCUCAACACAGCGUGGCAAAGUGGCUGUGGCUAGACUGCCUCUCUGGAUUCCUCGUCACUCAGCAGGGCAUCUCUGAGAGAAAUGCC

In the data set the parent is B1. The data set is described as follows: self-cleavage, relative activity (ratio to wild type); higher = more cleavage; in vitro, sequencing; the parent is a self-cleaving ribozyme.
Take A42U A107G: the self-cleavage came to 1.25. On to U39G A77G, for which the self-cleavage was 1.53. As for A42C A142G, the self-cleavage came to 1.23. For A42G U130A, the self-cleavage is 1.47. As for A42G U130C, the self-cleavage was determined as 1.57. As for U39G U52A, the self-cleavage amounted to 1.16.

Consider A42U U112A, for which the self-cleavage came out at 1.15. Take A42U U112C: the self-cleavage was found to be 1.08. Regarding U39G U115A, the self-cleavage was found to be 1.31.

As for U39C U45C, the self-cleavage stood at 1.54. In the case of A42U A138G, the self-cleavage was 1.28. Take A43G A50U: the self-cleavage was determined as 0.64. Take A43G A57U: the self-cleavage came to 0.21. In the case of A43G A57C, the self-cleavage came out at 0.09. In the case of A43G A57G, the self-cleavage was 0.78. Regarding G40A A50U, the self-cleavage stood at 0.84. For A42U U104C, the self-cleavage amounted to 1.76. Take G41U A117U: the self-cleavage was 1.24. With G41U A64G, the self-cleavage was determined as 0.16. Under A42G C51U stands 1.28. For A42U A94U, the self-cleavage was 0.15. Consider A42U A94G, for which the self-cleavage came out at 0.24. Regarding A42U U119C, the self-cleavage came out at 1.73.

Turning to A42G C133A, the self-cleavage came to 1.59. The same measure for A43G A77G: 2.07; for G40A U73A: 0.81; for G41U U134C: 1.21. G41A U108C: the self-cleavage was 1.23. As to A42U A129U, the self-cleavage came to 0.86. For the variant A42U A129G, the self-cleavage turned out to be 1.34. Regarding U39C G127A, the self-cleavage turned out to be 1.03. Consider G40U U134C, for which the self-cleavage turned out to be 1.6. A42G A117U: the self-cleavage came to 1.33. Regarding A42G G114A, the self-cleavage stood at 1.48. Under A42G C131A stands 1.23; under A42G U108C, 1.55.

Regarding A42G C146U, the self-cleavage came to 1.18. Under A42G C146G stands 0.45; under A42G C99A, 0.94; under A42U U102G, 0.09. Under A42U U102C stands 0.89; under G40U U132C, 2.4; under G40U U132A, 1.31.

For G40A U132C, the self-cleavage was found to be 1.03.

Regarding A42G A57G, the self-cleavage stood at 0.95.

For A42G A57U, the self-cleavage was 0.14.

Take G41A A138G: the self-cleavage stood at 1.25.

For A42U U132A, the self-cleavage was determined as 1.02. In the case of G41A G60U, the self-cleavage was found to be 0.04. In the case of G41A U130A, the self-cleavage came to 1.57. For the variant A42U A141U, the self-cleavage was found to be 0.81. Under A42G U132A stands 1.8. Consider A42G U132C, for which the self-cleavage came to 1.48.

For the variant A43G C76U, the self-cleavage was found to be 1.66. With U39C G135A, the self-cleavage came out at 1.2. Turning to A42U C113A, the self-cleavage was determined as 0.98.

Consider U39G A65C, for which the self-cleavage is 0.04. Regarding G40U G58A, the self-cleavage was 0.02. Regarding A42G A140G, the self-cleavage amounted to 1.46. As to A42G A140C, the self-cleavage was found to be 0.93. Take A42G A140U: the self-cleavage was determined as 1.2. U39G A136G: the self-cleavage worked out at 1.65.

For the variant G40A A129G, the self-cleavage was found to be 1.42. For G40A A129U, the self-cleavage came out at 0.46. The same measure for A42U A43G: 1.51; for A42U A43U: 0.84; for A42C U134C: 1.31. For the variant A42G A50G, the self-cleavage stood at 0.91. Under A42G U100C stands 1.54; under A42G U100A, 1.28; under A42C U102C, 1.13. For A43C C113A, the self-cleavage turned out to be 1.1.

With A43G A78G, the self-cleavage amounted to 1.2.

For A43G A78U, the self-cleavage stood at 1.86. Regarding A42G G80A, the self-cleavage was 2.61. On to A42U U52A, for which the self-cleavage stood at 1.2. Turning to A42U U45C, the self-cleavage was found to be 1.4. Turning to A42U G89U, the self-cleavage worked out at 0.04.

Consider A43G A69C, for which the self-cleavage was found to be 0.13. U39G U96C: the self-cleavage was 0.11.

As to A42U A64G, the self-cleavage worked out at 0.14.

Consider G41A U104C, for which the self-cleavage is 1.53. Turning to A42G A129U, the self-cleavage turned out to be 1.75. Take A42G A129C: the self-cleavage was 2.1. As for A42G U112A, the self-cleavage turned out to be 2.01. On to A42U U143C, for which the self-cleavage worked out at 0.94. Regarding A42G C145U, the self-cleavage came out at 1.26.

On to G41U G127A, for which the self-cleavage was found to be 0.69.

With G40U U100C, the self-cleavage stood at 0.46.

Take G40U U100A: the self-cleavage amounted to 0.89. Take A42G A77G: the self-cleavage was 2.66.

On to A42G A77U, for which the self-cleavage stood at 1.02. Under A43C A65G stands 0; under A42C C95U, 0.04. Regarding A42U U109A, the self-cleavage was 1.39. A43G A107C: the self-cleavage amounted to 1.17. For the variant A43G A107G, the self-cleavage came to 1.5. As to A43G A107U, the self-cleavage was found to be 0.7. A43G A59U: the self-cleavage came to 0.82. For the variant A43G C90A, the self-cleavage is 0.07.

As for G41U A65G, the self-cleavage stood at 0.03.

Turning to U39C U109A, the self-cleavage was determined as 1.15. G40U A117G: the self-cleavage worked out at 0.97.

For the variant G41A C68U, the self-cleavage is 0.23. As to G40A U143C, the self-cleavage came out at 1.26. As to A42U C128G, the self-cleavage was found to be 0.87.

As for A42G C68U, the self-cleavage is 0.18. With U39G A121G, the self-cleavage is 1.23.

Take A42G C101U: the self-cleavage was found to be 1.75.

Take G40A A138G: the self-cleavage was 1.49. U39C G83A: the self-cleavage came out at 0.2. On to A42G U52A, for which the self-cleavage was found to be 1.52. For A42G U52C, the self-cleavage came to 1.17. For the variant A42G U96A, the self-cleavage is 0.03. As for A43C U100A, the self-cleavage turned out to be 1.41. For A42G A124U, the self-cleavage turned out to be 1.35. In the case of A43G C99U, the self-cleavage came to 1.1.

On to U39C U100G, for which the self-cleavage is 0.59. U39C U100A: the self-cleavage was 0.53. The same measure for U39C U100C: 2.36; for U39C G144A: 0.85; for G41A C95U: 0.12. For G40U U85G, the self-cleavage came out at 0.28. Under G40A G88A stands 0.04; under A43C U81A, 1.77; under G41C U45C, 0.68.

With A42C C145U, the self-cleavage was 1.53. For A42G U134G, the self-cleavage worked out at 1.68.

Regarding A42G U134A, the self-cleavage was 0.93. On to A43G A138G, for which the self-cleavage came out at 1.34.

Turning to U39G U45C, the self-cleavage is 1.82.

For A42G U73A, the self-cleavage turned out to be 1.52. As to G40A U100C, the self-cleavage amounted to 1.59.

As to U39C U134C, the self-cleavage was found to be 1.5. As to U39C U134G, the self-cleavage is 1.39.

As to U39C U134A, the self-cleavage is 0.86.

On to A42G A69G, for which the self-cleavage was found to be 0.54. Under G40U G139A stands 1.17. In the case of A42U U81C, the self-cleavage came out at 1.28. The same measure for A43G C84U: 0.16; for U39G U81A: 1.62; for A42G G48A: 0.85. With A43C A136U, the self-cleavage came out at 1.64. As for U39G A79G, the self-cleavage is 1.28.

Regarding G41A U87C, the self-cleavage was 0.26. U39G U46C: the self-cleavage stood at 1.36.

For A43G A92U, the self-cleavage came to 0.92. With A42G G53A, the self-cleavage was 1.36. In the case of A42G U104G, the self-cleavage was found to be 0.8. In the case of A42C A92G, the self-cleavage amounted to 0.15. In the case of U39C U115C, the self-cleavage was found to be 1.37.

U39C U115A: the self-cleavage worked out at 1.05. On to A42C A117G, for which the self-cleavage is 0.77. On to U39C U47C, for which the self-cleavage worked out at 1.91.

With A42G A64U, the self-cleavage came out at 0.52. With A42U C66A, the self-cleavage stood at 0.03.

In the case of A43G A67U, the self-cleavage was determined as 0.06. Regarding A42G U119A, the self-cleavage was 0.95. A42U A121C: the self-cleavage came out at 2.42. With A43C C66U, the self-cleavage stood at 0.04. The same measure for G40A U62C: 0.04. For the variant A42U U62C, the self-cleavage was found to be 0.04. Take A42C C110A: the self-cleavage is 1.68. Regarding G41A A43C, the self-cleavage was 0.25. Consider G41A A43G, for which the self-cleavage was found to be 0.44. On to A42G U102A, for which the self-cleavage worked out at 1.38.

Take G41A U96C: the self-cleavage came to 0.11.
